From article PMC8004131 (Viruses, 2021)

Assays:
[1] = molecular target: Mojiang virus attachment glycoprotein (MojV G), full length, S-tagged (Mojiang virus); assay: cross-linking
[2] = molecular target: Mojiang virus fusion glycoprotein (MojV F), full length, S-tagged (Mojiang virus); assay: cross-linking
[3] = molecular target: soluble tetrameric Ghana virus attachment glycoprotein (GhV sG) (Ghana virus); assay: negative-stain electron microscopy
[4] = molecular target: soluble tetrameric Mojiang virus attachment glycoprotein (MojV sG) (Mojiang virus); assay: negative-stain electron microscopy
[5] = molecular target: soluble trimeric Cedar virus fusion glycoprotein (CedV sF) (Cedar virus); assay: negative-stain electron microscopy
[6] = molecular target: soluble trimeric Mojiang virus fusion glycoprotein (MojV sF) (Mojiang virus); assay: negative-stain electron microscopy
cross-linking = molecular target: the molecule itself; assay: cross-linking

**Q.** “Mojiang virus attachment glycoprotein (MojV G), full length, S-tagged (natural protein)” was tested. Which stoichiometry N [1] did it give?
**A.** 4

**Q.** “Mojiang virus fusion glycoprotein (MojV F), full length, S-tagged (natural protein)” was tested. Which stoichiometry N [2] did it give?
**A.** 3

**Q.** Which stoichiometry N [3] does the source give for “soluble tetrameric Ghana virus attachment glycoprotein (GhV sG) (domain or fragment)” here?
**A.** 4

**Q.** “soluble tetrameric Mojiang virus attachment glycoprotein (MojV sG) (domain or fragment)” was tested. Which stoichiometry N [4] did it give?
**A.** 4

**Q.** With “soluble trimeric Cedar virus fusion glycoprotein (CedV sF) (domain or fragment)” as the molecule, how does the stoichiometry N [5] read?
**A.** 3

**Q.** With “soluble trimeric Mojiang virus fusion glycoprotein (MojV sF) (domain or fragment)” as the molecule, how does the stoichiometry N [6] read?
**A.** 3

B1: Hendra virus attachment glycoprotein (HeV G), full length, S-tagged (natural protein)
chain: MMADSKLVSLNNNLSGKIKDQGKVIKNYYGTMDIKKINDGLLDSKILGAFNTVIALLGSIIIIVMNIMIIQNYTRTTDNQALIKESLQSVQQQIKALTDKIGTEIGPKVSLIDTSSTITIPANIGLLGSKISQSTSSINENVNDKCKFTLPPLKIHECNISCPNPLPFREYRPISQGVSDLVGLPNQICLQKTTSTILKPRLISYTLPINTREGVCITDPLLAVDNGFFAYSHLEKIGSCTRGIAKQRIIGVGEVLDRGDKVPSMFMTNVWTPPNPSTIHHCSSTYHEDFYYTLCAVSHVGDPILNSTSWTESLSLIRLAVRPKSDSGDYNQKYIAITKVERGKYDKVMPYGPSGIKQGDTLYFPAVGFLPRTEFQYNDSNCPIIHCKYSKAENCRLSMGVNSKSHYILRSGLLKYNLSLGGDIILQFIEIADNRLTIGSPSKIYNSLGQPVFYQASYSWDTMIKLGDVDTVDPLRVQWRNNSVISRPGQSQCPRFNVCPEVCWEGTYNDAFLIDRLNWVSAGVYLNSNQTAENPVFAVFKDNEILYQVPLAEDDTNAQKTITDCFLLENVIWCISLVEIYDTGDSVIRPKLFAVKIPAQCSES
**Q.** Which “stoichiometry N” value (cross-linking) does the source give for B1 here?
**A.** 4

B2: Cedar virus attachment glycoprotein (CedV G), full length, S-tagged (natural protein)
chain: MLSQLQKNYLDNSNQQGDKMNNPDKKLSVNFNPLELDKGQKDLNKSYYVKNKNYNVSNLLNESLHDIKFCIYCIFSLLIIITIINIITISIVITRLKVHEENNGMESPNLQSIQDSLSSLTNMINTEITPRIGILVTATSVTLSSSINYVGTKTNQLVNELKDYITKSCGFKVPELKLHECNISCADPKISKSAMYSTNAYAELAGPPKIFCKSVSKDPDFRLKQIDYVIPVQQDRSICMNNPLLDISDGFFTYIHYEGINSCKKSDSFKVLLSHGEIVDRGDYRPSLYLLSSHYHPYSMQVINCVPVTCNQSSFVFCHISNNTKTLDNSDYSSDEYYITYFNGIDRPKTKKIPINNMTADNRYIHFTFSGGGGVCLGEEFIIPVTTVINTDVFTHDYCESFNCSVQTGKSLKEICSESLRSPTNSSRYNLNGIMIISQNNMTDFKIQLNGITYNKLSFGSPGRLSKTLGQVLYYQSSMSWDTYLKAGFVEKWKPFTPNWMNNTVISRPNQGNCPRYHKCPEICYGGTYNDIAPLDLGKDMYVSVILDSDQLAENPEITVFNSTTILYKERVSKDELNTRSTTTSCFLFLDEPWCISVLETNRFNGKSIRPEIYSYKIPKYC
notes: source: BSR-T7/5, transfected, on cells; precipitated from lysate with S protein agarose; not shown: S-tag, N-terminal, kept
**Q.** Which “stoichiometry N” value (cross-linking) does the source give for B2 here?
**A.** 4
